Changes are numbered by the printed parent chain.
T1: recombinant human CD122 (human, UniProt P14784 27-239, limits assumed)
T1 construct: also called IL-2Rβ
T1 sequence (looked up): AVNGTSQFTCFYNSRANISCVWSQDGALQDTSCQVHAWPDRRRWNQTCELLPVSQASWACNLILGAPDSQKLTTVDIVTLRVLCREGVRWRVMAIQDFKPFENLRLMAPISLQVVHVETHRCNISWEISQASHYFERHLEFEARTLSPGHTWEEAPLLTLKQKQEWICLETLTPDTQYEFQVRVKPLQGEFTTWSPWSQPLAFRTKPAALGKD

T2: recombinant human CD132 (human, UniProt P31785 23-262, limits assumed)
T2 construct: also called IL-2Rγ
T2 sequence (looked up): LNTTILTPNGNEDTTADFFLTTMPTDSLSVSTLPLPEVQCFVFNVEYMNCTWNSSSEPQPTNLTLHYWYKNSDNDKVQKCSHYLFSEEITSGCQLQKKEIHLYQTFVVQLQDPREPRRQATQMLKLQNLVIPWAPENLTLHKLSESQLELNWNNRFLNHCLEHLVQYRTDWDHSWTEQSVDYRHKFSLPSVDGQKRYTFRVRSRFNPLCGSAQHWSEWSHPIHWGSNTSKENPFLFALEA

T3: CD122/CD132 complex on HEK-Blue IL-2 cells (UniProt P14784 27-551; P31785 23-369, limits assumed)
T3 sequence (looked up) 1: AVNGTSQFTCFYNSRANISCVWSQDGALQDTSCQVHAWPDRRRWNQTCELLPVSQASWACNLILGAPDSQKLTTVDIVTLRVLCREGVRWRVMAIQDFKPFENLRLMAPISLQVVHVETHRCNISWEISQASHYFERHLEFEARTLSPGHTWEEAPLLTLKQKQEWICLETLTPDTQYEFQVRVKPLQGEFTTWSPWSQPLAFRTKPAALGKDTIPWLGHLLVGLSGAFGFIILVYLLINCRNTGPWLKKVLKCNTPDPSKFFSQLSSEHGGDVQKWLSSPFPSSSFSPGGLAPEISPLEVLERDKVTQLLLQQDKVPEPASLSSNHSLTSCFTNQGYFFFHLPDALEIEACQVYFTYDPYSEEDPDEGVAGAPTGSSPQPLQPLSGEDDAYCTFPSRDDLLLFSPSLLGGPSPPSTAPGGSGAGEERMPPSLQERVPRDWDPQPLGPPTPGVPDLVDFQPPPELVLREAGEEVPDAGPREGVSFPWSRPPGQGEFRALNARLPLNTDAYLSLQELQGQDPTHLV
T3 sequence (looked up) 2: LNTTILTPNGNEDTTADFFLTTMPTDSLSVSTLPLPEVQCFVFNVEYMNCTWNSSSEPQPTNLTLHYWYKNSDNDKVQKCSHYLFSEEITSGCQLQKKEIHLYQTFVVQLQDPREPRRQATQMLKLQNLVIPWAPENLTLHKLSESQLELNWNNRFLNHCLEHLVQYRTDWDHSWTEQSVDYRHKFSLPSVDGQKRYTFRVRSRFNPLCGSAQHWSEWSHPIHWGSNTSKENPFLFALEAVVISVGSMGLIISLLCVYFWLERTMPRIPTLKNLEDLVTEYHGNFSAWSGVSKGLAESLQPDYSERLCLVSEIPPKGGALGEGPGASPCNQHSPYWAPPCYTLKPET

T4: human CD122 on HEK293 cells (human, UniProt P14784 27-551)
T4 construct: whole, on cells; also called cell surface CD122
T4 sequence (looked up): T3 sequence (looked up) 1

T5: human CD132 on HEK293 cells (human, UniProt P31785 23-369)
T5 construct: whole, on cells; also called cell surface CD132
T5 sequence (looked up): T3 sequence (looked up) 2

B1: huFIT2019-86b-28 (bispecific antibody, human IgG1, kappa, L234A L235A)
chain 1: not shown
chain 2: EVQLVQSGAEVKKPGASVKVSCKASGYRFSDYVISWVKQATGQGLEWIGEIYPGDAQTYYNEMFKGRATLTADKSISTAYMELSSLRSEDTAVYFCARGSYTYDNYAMDFWGQGTTVTVSSASTKGPSVFPLAPSSKSTSGGTAALGCLVKDYFPEPVTVSWNSGALTSGVHTFPAVLQSSGLYSLSSVVTVPSSSLGTQTYICNVNHKPSNTKVDKKVEPKSC
chain 3: not shown
B2: huFIT2019-86b-33 (bispecific antibody, human IgG1, kappa, L234A L235A)
chain 1: not shown
chain 2: EVQLVQSGAEVKKPGASVKVSCKASGYTFTDYVISWVRQATGQGLEWMGEIYPGDGNTYYNEMFKGRVTMTRDTSISTAYMELSSLRSEDTAVYYCARGSYTYDNYAMDFWGQGTTVTVSSASTKGPSVFPLAPSSKSTSGGTAALGCLVKDYFPEPVTVSWNSGALTSGVHTFPAVLQSSGLYSLSSVVTVPSSSLGTQTYICNVNHKPSNTKVDKKVEPKSC
chain 3: not shown
B3: huFIT2019-86b-31 (bispecific antibody, human IgG1, kappa, L234A L235A)
chain 1: not shown
chain 2: B2 chain 2 with G56A, N57Q
chain 3: not shown
B4: huFIT2019-86b-29 (bispecific antibody, human IgG1, kappa, L234A L235A)
chain 1: not shown
chain 2: B2 chain 2 with G56A, N57Q
chain 3: not shown
B5: huFIT2019-86b-34 (bispecific antibody, human IgG1, kappa, L234A L235A)
chain 1: not shown
chain 2: B2 chain 2
chain 3: not shown
B6: huFIT2019-86b-30 (bispecific antibody, human IgG1, kappa, L234A L235A)
chain 1: not shown
chain 2: B2 chain 2 with G56A, N57Q
chain 3: not shown
B7: huFIT2019-86b-36 (bispecific antibody, human IgG1, kappa, L234A L235A)
chain 1: not shown
chain 2: B2 chain 2
chain 3: not shown
B8: huFIT2019-86b-49 (bispecific antibody, human IgG1, kappa, L234A L235A)
chain 1: not shown
chain 2: B2 chain 2
chain 3: not shown
B9: huFIT2019-86b-47 (bispecific antibody, human IgG1, kappa, L234A L235A)
chain 1: not shown
chain 2: B2 chain 2 with D55E
chain 3: not shown
B10: huFIT2019-86b-46 (bispecific antibody, human IgG1, kappa, L234A L235A)
chain 1: not shown
chain 2: B2 chain 2 with G56A
chain 3: not shown
B11: huFIT2019-86b-50 (bispecific antibody, human IgG1, kappa, L234A L235A)
chain 1: not shown
chain 2: B2 chain 2
chain 3: not shown
B12: huFIT2019-86b-35 (bispecific antibody, human IgG1, kappa, L234A L235A)
chain 1: not shown
chain 2: B2 chain 2
chain 3: not shown
B13: huFIT2019-86b-48 (bispecific antibody, human IgG1, kappa, L234A L235A)
chain 1: not shown
chain 2: B2 chain 2
chain 3: not shown
B14: huFIT2019-86b-45 (bispecific antibody, human IgG1, kappa, L234A L235A)
chain 1: not shown
chain 2: B2 chain 2 with G56A, N57Q
chain 3: not shown
B15: huFIT2019-86b-32 (bispecific antibody, human IgG1, kappa, L234A L235A)
chain 1: not shown
chain 2: B2 chain 2
chain 3: not shown
notes: also called huFIT9-86b-32
B16: Duo2019-86b (bispecific antibody, human IgG1, kappa, L234A L235A)
heavy 1: EVQLQQPGSELVRPGASVKLSCKASGYTFTSYWMHWMKQRPGQGLEWIGHIYLGGGATNYAEKFRSKATLTADTSSSTAYMQLSSLTSEDSAVYYCTRSQPYYYGMDSWGQGTSVTVSSASTKGPSVFPLAPSSKSTSGGTAALGCLVKDYFPEPVTVSWNSGALTSGVHTFPAVLQSSGLYSLSSVVTVPSSSLGTQTYICNVNHKPSNTKVDKKVEPKSCDKTHTCPPCPAPEAAGGPSVFLFPPKPKDTLMISRTPEVTCVVVDVSHEDPEVKFNWYVDGVEVHNAKTKPREEQYNSTYRVVSVLTVLHQDWLNGKEYKCKVSNKALPAPIEKTISKAKGQPREPQVYTLPPSREEMTKNQVSLTCLVKGFYPSDIAVEWESNGQPENNYKTTPPVLDSDGSFLLYSKLTVDKSRWQQGNVFSCSVMHEALHNHYTQKSLSLSPGK
light 1: DIQMTQTPSSLSASLGDRVTISCRASQDISNYLNWYQQKPDGTVKLLIYYKSRLHSGVPSRFSGSGSGTEYSLTINNLEQEDFATYFCHQGHTIPFTFGSGTKLEIKRTVAAPSVFIFPPSDEQLKSGTASVVCLLNNFYPREAKVQWKVDNALQSGNSQESVTEQDSKDSTYSLSSTLTLSKADYEKHKVYACEVTHQGLSSPVTKSFNRGEC
heavy 2: QVQLQQSGPELVKPGASVKMSCKASGYRFSDYVISWVKQRSGQGLEWIGEIYPGDGNTYYNEMFKGRATLTADKSPNTAYMKLSSLTSEDSALYFCARGSYTYDNYAMDFWGQGTSVTVSSASTKGPSVFPLAPSSKSTSGGTAALGCLVKDYFPEPVTVSWNSGALTSGVHTFPAVLQSSGLYSLSSVVTVPSSSLGTQTYICNVNHKPSNTKVDKKVEPKSCDKTHTCPPCPAPEAAGGPSVFLFPPKPKDTLMISRTPEVTCVVVDVSHEDPEVKFNWYVDGVEVHNAKTKPREEQYNSTYRVVSVLTVLHQDWLNGKEYKCKVSNKALPAPIEKTISKAKGQPREPQVYTLPPSREEMTKNQVSLTCLVKGFYPSDIAVEWESNGQPENNYKTTPPVLDSDGSFFLYSRLTVDKSRWQQGNVFSCSVMHEALHNHYTQKSLSLSPGK
light 2: DVLMTQTPLSLPVSLGDQASISCRSSQNIVHSNGNTYLEWYLQKPGQSPKLLIYKVSNRFSGVPDRFSGSGSGTDFTLKISRVEAEDLGLYYCFQGSHIPWTFGGGTKLEIKRTVAAPSVFIFPPSDEQLKSGTASVVCLLNNFYPREAKVQWKVDNALQSGNSQESVTEQDSKDSTYSLSSTLTLSKADYEKHKVYACEVTHQGLSSPVTKSFNRGEC
notes: 1+1 asymmetric IgG1 made by Fab-arm exchange; printed both as Duo2019-86 and Duo2019-86b

molecular target: T1, recombinant human CD122; assay: GCI (WAVEsystem)
Experimental: (§1) Binding affinity and kinetics constants of humanized CD122/CD132 FIT-Ig were determined using a label-free biosensor on WAVEsystem (Creoptix AG, Switzerland) by grating-coupled interferometry (GCI). Briefly, a PCP WAVEchip (Creoptix AG) was pre-immobilized with goat anti-human IgG Fc antibody to a density of 3830 pg/mm² by amine coupling, and used to capture humanized CD122/CD132 FIT-Ig generated from Example 3.2.1 to a density of ˜90 pg/mm², then exposed to recombinant human/cyno CD122 or CD132 serially diluted (3× dilutions from 200 nM to […] for human CD122, human CD132 and cyno CD132, respectively; and from 1000 nM to 1.37 nM for cyno CD122) in 1X HBS-EP+ buffer (Cytiva, Cat No. BR100669) by injection at 60 μL/min for 250s to assess association, followed by 1200s dissociation. After each round of association and dissociation, WAVEchip surface was regenerated by subject to pH 1.5 Glycine-HCl buffer injection at 60 μL/min for 120s. Sensorgrams were recorded at 25° C., the data were analyzed on WAVEcontrol (Creoptix AG) and double referenced by subtracting the signals from blank injections and the reference channel. A Langmuir 1:1 model was used for data fitting.

Question: Does B1 bind?
Answer: Result: binds

Question: Does B2 bind?
Answer: Result: binds

Question: Does B3 bind?
Answer: Result: binds

Question: Does B4 bind?
Answer: Result: binds

Question: Does B5 bind?
Answer: Result: binds

Question: Does B6 bind?
Answer: Result: binds

Question: Does B7 bind?
Answer: Result: binds

molecular target: T2, recombinant human CD132; assay: GCI (WAVEsystem)
Experimental: as §1

Question: Does B1 bind?
Answer: Result: binds

Question: Does B8 bind?
Answer: Result: binds

Question: Does B9 bind?
Answer: Result: binds

Question: Does B2 bind?
Answer: Result: binds

Question: Does B3 bind?
Answer: Result: binds

Question: Does B10 bind?
Answer: Result: binds

Question: Does B11 bind?
Answer: Result: binds

Question: Does B12 bind?
Answer: Result: binds

Question: Does B4 bind?
Answer: Result: binds

Question: Does B5 bind?
Answer: Result: binds

Question: Does B6 bind?
Answer: Result: binds

Question: Does B7 bind?
Answer: Result: binds

Question: Does B13 bind?
Answer: Result: binds

Question: Does B14 bind?
Answer: Result: binds

Question: Does B15 bind?
Answer: Result: binds

molecular target: T3, CD122/CD132 complex on HEK-Blue IL-2 …; assay: cell-based or functional assay

Question: How did the “EC50 from SEAP reporter gene assay” value turn out when B8 was run?
Answer: The value was 216 pM.

Question: How did the “EC50 from SEAP reporter gene assay” value turn out when B9 was run?
Answer: Its value is 121 pM.

Question: How did the “EC50 from SEAP reporter gene assay” value turn out when B10 was run?
Answer: Its value is 119 pM.

Question: B11 was tested. Which “EC50 from SEAP reporter gene assay” value did it give?
Answer: Its value is 286 pM.

Question: How did the “EC50 from SEAP reporter gene assay” value turn out when B12 was run?
Answer: The value was 163 pM.

Question: Which “EC50 from SEAP reporter gene assay” value does the source give for B13 here?
Answer: Its value is 168 pM.

Question: With B14 as the binder, how does the “EC50 from SEAP reporter gene assay” value read?
Answer: Its value is 106 pM.

Question: Which “EC50 from SEAP reporter gene assay” value does the source give for B15 here?
Answer: The value was 163 pM.

molecular target: T4, human CD122 on HEK293 cells; assay: Flow cytometry (MFI) on HEK293 cells overexpressing human CD122; the table gives no unit, the axis is Fab conc.(nM)
Experimental: (§2) Briefly, a 96-well plate was seeded with 3×10⁵ cells each well, centrifuged at 400 g for 5 minutes and supernatants discarded, then added 100 μl of antibody (5× serial dilutions, 0.0064 to 100 nM) each well and gently mixed. After 60 minutes of incubation at 4° C., plates were washed several times to remove excess antibodies. Secondary fluorochrome-conjugated goat anti-human IgG antibody (Jackson Immunoresearch, Cat No. 109-606-098) was then added and incubated with cells at 4° C. for 20 minutes. After another round of centrifugation and washing, cells were resuspended in assay buffer (1X PBS containing 2% FBS) for reading on a flow-cytometer. Median Fluorescence Intensity (MFI) readouts were plotted against antibody concentration and analyzed with GraphPad Prism 6.0 software.

Question: With B16 as the binder, how does the EC50 read?
Answer: The EC50 was 1630 pM.

molecular target: T5, human CD132 on HEK293 cells; assay: Flow cytometry (MFI) on HEK293 cells overexpressing human CD132; the table gives no unit, the axis is Fab conc.(nM)
Experimental: as §2

Question: Which EC50 does the source give for B16 here?
Answer: The EC50 was 11400 pM.
